This is an account of results in article PMC5161677.

The target of one data set is T1, DnaA (Caulobacter crescentus, UniProt B8GWW5 1-490).
T1 sequence: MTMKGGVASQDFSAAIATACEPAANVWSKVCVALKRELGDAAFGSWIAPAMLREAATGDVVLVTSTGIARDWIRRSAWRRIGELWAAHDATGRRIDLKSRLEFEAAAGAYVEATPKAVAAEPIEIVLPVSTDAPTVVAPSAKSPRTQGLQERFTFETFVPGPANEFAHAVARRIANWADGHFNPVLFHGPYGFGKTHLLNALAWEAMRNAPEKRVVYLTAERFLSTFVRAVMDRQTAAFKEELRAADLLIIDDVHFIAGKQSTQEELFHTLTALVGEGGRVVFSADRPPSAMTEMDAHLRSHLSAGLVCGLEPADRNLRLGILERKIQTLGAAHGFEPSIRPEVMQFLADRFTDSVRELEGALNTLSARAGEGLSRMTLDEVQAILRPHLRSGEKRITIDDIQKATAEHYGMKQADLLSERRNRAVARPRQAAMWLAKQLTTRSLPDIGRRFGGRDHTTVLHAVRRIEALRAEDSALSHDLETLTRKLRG
Kind of data set: EMSA. (In general: In EMSA bound probe runs differently from free probe, usually more slowly.)

Another data set concerns the target T2, DnaA R357A (Caulobacter crescentus, UniProt B8GWW5 1-490, R357A).
T2 sequence: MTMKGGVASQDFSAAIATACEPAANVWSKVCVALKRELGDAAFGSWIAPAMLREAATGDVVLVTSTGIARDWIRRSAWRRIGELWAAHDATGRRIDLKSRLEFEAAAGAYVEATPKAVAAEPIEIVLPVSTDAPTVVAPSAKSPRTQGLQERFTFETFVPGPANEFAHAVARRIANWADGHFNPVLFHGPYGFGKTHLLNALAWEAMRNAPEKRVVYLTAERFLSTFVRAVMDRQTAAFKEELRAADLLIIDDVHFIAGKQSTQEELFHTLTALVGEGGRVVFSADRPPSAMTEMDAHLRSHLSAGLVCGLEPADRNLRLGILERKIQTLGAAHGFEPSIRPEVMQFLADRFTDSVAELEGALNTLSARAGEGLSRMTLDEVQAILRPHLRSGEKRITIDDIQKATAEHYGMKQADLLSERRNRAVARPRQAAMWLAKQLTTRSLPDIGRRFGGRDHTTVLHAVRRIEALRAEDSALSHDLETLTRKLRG
The experiment in a line: EMSA.

B1: G1 DnaA box dsDNA (dsDNA)
DNA 1: AACGGATGATCCACAGGAGAG
DNA 2: CTCTCCTGTGGATCATCCGTT
Regarding B1, the binding result with DnaA and with DnaA R357A was “binds” throughout.
